Results taken from patent US20230183713A1, “SITE-SPECIFIC RECOMBINASES FOR EFFICIENT AND SPECIFIC GENOME EDITING” (TECHNISCHE UNIVERSITÄt DRESDEN, published 2023).

T1: Cre recombinase monomer with Q311R mutation
T1 chain: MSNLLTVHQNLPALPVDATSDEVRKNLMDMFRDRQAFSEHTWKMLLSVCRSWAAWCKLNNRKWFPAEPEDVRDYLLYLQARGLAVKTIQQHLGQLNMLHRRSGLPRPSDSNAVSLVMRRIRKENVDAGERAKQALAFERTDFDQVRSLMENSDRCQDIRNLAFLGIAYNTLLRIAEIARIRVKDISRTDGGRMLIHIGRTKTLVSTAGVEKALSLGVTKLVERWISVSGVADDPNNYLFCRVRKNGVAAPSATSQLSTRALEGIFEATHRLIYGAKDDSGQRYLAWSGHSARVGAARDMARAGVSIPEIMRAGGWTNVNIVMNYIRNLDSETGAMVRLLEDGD


Target: T1, Cre recombinase monomer with Q311R …

Protein | Median dimer activity (recombination on loxP) [%]
Cre recombinase monomer with H289D mutation (protein) MSNLLTVHQNLPALPVDATSDEVRKNLMDMFRDRQAFSEHTWKMLLSVCRSWAAWCKLNNRKWFPAEPEDVRDYLLYLQARGLAVKTIQQHLGQLNMLHRRSGLPRPSDSNAVSLVMRRIRKENVDAGERAKQALAFERTDFDQVRSLMENSDRCQDIRNLAFLGIAYNTLLRIAEIARIRVKDISRTDGGRMLIHIGRTKTLVSTAGVEKALSLGVTKLVERWISVSGVADDPNNYLFCRVRKNGVAAPSATSQLSTRALEGIFEATHRLIYGAKDDSGQRYLAWSGDSARVGAARDMARAGVSIPEIMQAGGWTNVNIVMNYIRNLDSETGAMVRLLEDGD | 97
Cre recombinase monomer with H289I mutation (protein) MSNLLTVHQNLPALPVDATSDEVRKNLMDMFRDRQAFSEHTWKMLLSVCRSWAAWCKLNNRKWFPAEPEDVRDYLLYLQARGLAVKTIQQHLGQLNMLHRRSGLPRPSDSNAVSLVMRRIRKENVDAGERAKQALAFERTDFDQVRSLMENSDRCQDIRNLAFLGIAYNTLLRIAEIARIRVKDISRTDGGRMLIHIGRTKTLVSTAGVEKALSLGVTKLVERWISVSGVADDPNNYLFCRVRKNGVAAPSATSQLSTRALEGIFEATHRLIYGAKDDSGQRYLAWSGISARVGAARDMARAGVSIPEIMQAGGWTNVNIVMNYIRNLDSETGAMVRLLEDGD | 75
Cre recombinase monomer with H289R mutation (protein) MSNLLTVHQNLPALPVDATSDEVRKNLMDMFRDRQAFSEHTWKMLLSVCRSWAAWCKLNNRKWFPAEPEDVRDYLLYLQARGLAVKTIQQHLGQLNMLHRRSGLPRPSDSNAVSLVMRRIRKENVDAGERAKQALAFERTDFDQVRSLMENSDRCQDIRNLAFLGIAYNTLLRIAEIARIRVKDISRTDGGRMLIHIGRTKTLVSTAGVEKALSLGVTKLVERWISVSGVADDPNNYLFCRVRKNGVAAPSATSQLSTRALEGIFEATHRLIYGAKDDSGQRYLAWSGRSARVGAARDMARAGVSIPEIMQAGGWTNVNIVMNYIRNLDSETGAMVRLLEDGD | 79
Cre recombinase monomer with R292A mutation (protein) MSNLLTVHQNLPALPVDATSDEVRKNLMDMFRDRQAFSEHTWKMLLSVCRSWAAWCKLNNRKWFPAEPEDVRDYLLYLQARGLAVKTIQQHLGQLNMLHRRSGLPRPSDSNAVSLVMRRIRKENVDAGERAKQALAFERTDFDQVRSLMENSDRCQDIRNLAFLGIAYNTLLRIAEIARIRVKDISRTDGGRMLIHIGRTKTLVSTAGVEKALSLGVTKLVERWISVSGVADDPNNYLFCRVRKNGVAAPSATSQLSTRALEGIFEATHRLIYGAKDDSGQRYLAWSGHSAAVGAARDMARAGVSIPEIMQAGGWTNVNIVMNYIRNLDSETGAMVRLLEDGD | 96
Cre recombinase monomer with R292C mutation (protein) MSNLLTVHQNLPALPVDATSDEVRKNLMDMFRDRQAFSEHTWKMLLSVCRSWAAWCKLNNRKWFPAEPEDVRDYLLYLQARGLAVKTIQQHLGQLNMLHRRSGLPRPSDSNAVSLVMRRIRKENVDAGERAKQALAFERTDFDQVRSLMENSDRCQDIRNLAFLGIAYNTLLRIAEIARIRVKDISRTDGGRMLIHIGRTKTLVSTAGVEKALSLGVTKLVERWISVSGVADDPNNYLFCRVRKNGVAAPSATSQLSTRALEGIFEATHRLIYGAKDDSGQRYLAWSGHSACVGAARDMARAGVSIPEIMQAGGWTNVNIVMNYIRNLDSETGAMVRLLEDGD | 93
Cre recombinase monomer with R292F mutation (protein) MSNLLTVHQNLPALPVDATSDEVRKNLMDMFRDRQAFSEHTWKMLLSVCRSWAAWCKLNNRKWFPAEPEDVRDYLLYLQARGLAVKTIQQHLGQLNMLHRRSGLPRPSDSNAVSLVMRRIRKENVDAGERAKQALAFERTDFDQVRSLMENSDRCQDIRNLAFLGIAYNTLLRIAEIARIRVKDISRTDGGRMLIHIGRTKTLVSTAGVEKALSLGVTKLVERWISVSGVADDPNNYLFCRVRKNGVAAPSATSQLSTRALEGIFEATHRLIYGAKDDSGQRYLAWSGHSAFVGAARDMARAGVSIPEIMQAGGWTNVNIVMNYIRNLDSETGAMVRLLEDGD | 42
Cre recombinase monomer with R292G mutation (protein) MSNLLTVHQNLPALPVDATSDEVRKNLMDMFRDRQAFSEHTWKMLLSVCRSWAAWCKLNNRKWFPAEPEDVRDYLLYLQARGLAVKTIQQHLGQLNMLHRRSGLPRPSDSNAVSLVMRRIRKENVDAGERAKQALAFERTDFDQVRSLMENSDRCQDIRNLAFLGIAYNTLLRIAEIARIRVKDISRTDGGRMLIHIGRTKTLVSTAGVEKALSLGVTKLVERWISVSGVADDPNNYLFCRVRKNGVAAPSATSQLSTRALEGIFEATHRLIYGAKDDSGQRYLAWSGHSAGVGAARDMARAGVSIPEIMQAGGWTNVNIVMNYIRNLDSETGAMVRLLEDGD | 97
Cre recombinase monomer with R292H mutation (protein) MSNLLTVHQNLPALPVDATSDEVRKNLMDMFRDRQAFSEHTWKMLLSVCRSWAAWCKLNNRKWFPAEPEDVRDYLLYLQARGLAVKTIQQHLGQLNMLHRRSGLPRPSDSNAVSLVMRRIRKENVDAGERAKQALAFERTDFDQVRSLMENSDRCQDIRNLAFLGIAYNTLLRIAEIARIRVKDISRTDGGRMLIHIGRTKTLVSTAGVEKALSLGVTKLVERWISVSGVADDPNNYLFCRVRKNGVAAPSATSQLSTRALEGIFEATHRLIYGAKDDSGQRYLAWSGHSAHVGAARDMARAGVSIPEIMQAGGWTNVNIVMNYIRNLDSETGAMVRLLEDGD | 88
Cre recombinase monomer with R292I mutation (protein) MSNLLTVHQNLPALPVDATSDEVRKNLMDMFRDRQAFSEHTWKMLLSVCRSWAAWCKLNNRKWFPAEPEDVRDYLLYLQARGLAVKTIQQHLGQLNMLHRRSGLPRPSDSNAVSLVMRRIRKENVDAGERAKQALAFERTDFDQVRSLMENSDRCQDIRNLAFLGIAYNTLLRIAEIARIRVKDISRTDGGRMLIHIGRTKTLVSTAGVEKALSLGVTKLVERWISVSGVADDPNNYLFCRVRKNGVAAPSATSQLSTRALEGIFEATHRLIYGAKDDSGQRYLAWSGHSAIVGAARDMARAGVSIPEIMQAGGWTNVNIVMNYIRNLDSETGAMVRLLEDGD | 97
Cre recombinase monomer with R292L mutation (protein) MSNLLTVHQNLPALPVDATSDEVRKNLMDMFRDRQAFSEHTWKMLLSVCRSWAAWCKLNNRKWFPAEPEDVRDYLLYLQARGLAVKTIQQHLGQLNMLHRRSGLPRPSDSNAVSLVMRRIRKENVDAGERAKQALAFERTDFDQVRSLMENSDRCQDIRNLAFLGIAYNTLLRIAEIARIRVKDISRTDGGRMLIHIGRTKTLVSTAGVEKALSLGVTKLVERWISVSGVADDPNNYLFCRVRKNGVAAPSATSQLSTRALEGIFEATHRLIYGAKDDSGQRYLAWSGHSALVGAARDMARAGVSIPEIMQAGGWTNVNIVMNYIRNLDSETGAMVRLLEDGD | 93
Cre recombinase monomer with R292N mutation (protein) MSNLLTVHQNLPALPVDATSDEVRKNLMDMFRDRQAFSEHTWKMLLSVCRSWAAWCKLNNRKWFPAEPEDVRDYLLYLQARGLAVKTIQQHLGQLNMLHRRSGLPRPSDSNAVSLVMRRIRKENVDAGERAKQALAFERTDFDQVRSLMENSDRCQDIRNLAFLGIAYNTLLRIAEIARIRVKDISRTDGGRMLIHIGRTKTLVSTAGVEKALSLGVTKLVERWISVSGVADDPNNYLFCRVRKNGVAAPSATSQLSTRALEGIFEATHRLIYGAKDDSGQRYLAWSGHSANVGAARDMARAGVSIPEIMQAGGWTNVNIVMNYIRNLDSETGAMVRLLEDGD | 95
Cre recombinase monomer with R292P mutation (protein) MSNLLTVHQNLPALPVDATSDEVRKNLMDMFRDRQAFSEHTWKMLLSVCRSWAAWCKLNNRKWFPAEPEDVRDYLLYLQARGLAVKTIQQHLGQLNMLHRRSGLPRPSDSNAVSLVMRRIRKENVDAGERAKQALAFERTDFDQVRSLMENSDRCQDIRNLAFLGIAYNTLLRIAEIARIRVKDISRTDGGRMLIHIGRTKTLVSTAGVEKALSLGVTKLVERWISVSGVADDPNNYLFCRVRKNGVAAPSATSQLSTRALEGIFEATHRLIYGAKDDSGQRYLAWSGHSAPVGAARDMARAGVSIPEIMQAGGWTNVNIVMNYIRNLDSETGAMVRLLEDGD | 76
Cre recombinase monomer with R292Q mutation (protein) MSNLLTVHQNLPALPVDATSDEVRKNLMDMFRDRQAFSEHTWKMLLSVCRSWAAWCKLNNRKWFPAEPEDVRDYLLYLQARGLAVKTIQQHLGQLNMLHRRSGLPRPSDSNAVSLVMRRIRKENVDAGERAKQALAFERTDFDQVRSLMENSDRCQDIRNLAFLGIAYNTLLRIAEIARIRVKDISRTDGGRMLIHIGRTKTLVSTAGVEKALSLGVTKLVERWISVSGVADDPNNYLFCRVRKNGVAAPSATSQLSTRALEGIFEATHRLIYGAKDDSGQRYLAWSGHSAQVGAARDMARAGVSIPEIMQAGGWTNVNIVMNYIRNLDSETGAMVRLLEDGD | 70
Cre recombinase monomer with R292S mutation (protein) MSNLLTVHQNLPALPVDATSDEVRKNLMDMFRDRQAFSEHTWKMLLSVCRSWAAWCKLNNRKWFPAEPEDVRDYLLYLQARGLAVKTIQQHLGQLNMLHRRSGLPRPSDSNAVSLVMRRIRKENVDAGERAKQALAFERTDFDQVRSLMENSDRCQDIRNLAFLGIAYNTLLRIAEIARIRVKDISRTDGGRMLIHIGRTKTLVSTAGVEKALSLGVTKLVERWISVSGVADDPNNYLFCRVRKNGVAAPSATSQLSTRALEGIFEATHRLIYGAKDDSGQRYLAWSGHSASVGAARDMARAGVSIPEIMQAGGWTNVNIVMNYIRNLDSETGAMVRLLEDGD | 97
Cre recombinase monomer with R292V mutation (protein) MSNLLTVHQNLPALPVDATSDEVRKNLMDMFRDRQAFSEHTWKMLLSVCRSWAAWCKLNNRKWFPAEPEDVRDYLLYLQARGLAVKTIQQHLGQLNMLHRRSGLPRPSDSNAVSLVMRRIRKENVDAGERAKQALAFERTDFDQVRSLMENSDRCQDIRNLAFLGIAYNTLLRIAEIARIRVKDISRTDGGRMLIHIGRTKTLVSTAGVEKALSLGVTKLVERWISVSGVADDPNNYLFCRVRKNGVAAPSATSQLSTRALEGIFEATHRLIYGAKDDSGQRYLAWSGHSAVVGAARDMARAGVSIPEIMQAGGWTNVNIVMNYIRNLDSETGAMVRLLEDGD | 95
